According to the RNAGym collection of RNA variant scans (doi:10.7554/elife.90254):

B1: OR4K15 (parent)
chain: GUUAACGGUCAUAGGCCAUGGAAACUAGGAGCACCAUUUCGCUGCCAGUGAAGAAAUGAACAAAGAAAAUCUGGGCCAGGCAGGCAUCAAAAGAAAUAGUCUUGCGCUCAACCAGAAAGUCUGUAAUCAUUUUAAGGGUA

Variants of: B1
Assay: self-cleavage, relative activity (ratio to wild type); higher = more cleavage; in vitro, sequencing; the parent is a self-cleaving ribozyme

With GUUAACGGUCAUAGGCCAUGGAAACUAGGAGCACCAUUUCGCUGCCAGUGAAGAAAUGAACAAAGAAAAUCUGGGCCAGGCAGGCAUCAAAAGAAAUAGUCUUGCGCUCAACCAGAAAGUCUGUAAUCAUUUUAAGGAUU [G138A A140U] as the variant, how does the self-cleavage read?
The self-cleavage was 1.08.

Which self-cleavage does the source give for GUUAACGGUCAUAGGCCAUGGAAACUAGGAGCACCAUUUCGCUGCCAGUGAAGAAAUGAACAAAGAAAAUCUGGGCCAGGCAGGCAUCAAAAGAAAUAGUCUUGCGCUCAACCAGAAAGUCUGUAAUCAUUUUGUGGGUA [A134G A135U] here?
The self-cleavage was 0.3.

With GUUAACGGUCAUAGGCCAUGGAAACUAGGAGCACCAUUUCGCUGCCAGUGAAGAAAUGAACAAAGAAAAUCUGGGCCAGGCAGGCAUCAAAAGAAAUAGUCUUGCGCUCAACCAGAAAGUCUGUAAUCAUUUUGCGGGUA [A134G A135C] as the variant, how does the self-cleavage read?
Its self-cleavage is 1.54.

Which self-cleavage does the source give for GUUAACGGUCAUAGGCCAUGGAAACUAGGAGCACCAUUUCGCUGCCAGUGAAGAAAUGAACAAAGAAAAUCUGGGCCAGGCAGGCAUCAAAAGAAAUAGUCUUGCGCUCAACCAGAAAGUCUGUAAUCAUUCUAAGGGCA [U132C U139C] here?
The self-cleavage was 1.81.

Which self-cleavage does the source give for GUUAACGGUCAUAGGCCAUGGAAACUAGGAGCACCAUUUCGCUGCCAGUGAAGAAAUGAACAAAGAAAAUCUGGGCCAGGCAGGCAUCAAAAGAAAUAGUCUUGCGCUCAACCAGAAAGUCUGUAAUCAUUUUCAGGGUA [A134C] here?
Its self-cleavage is 1.35.

For GUUAACGGUCAUAGGCCAUGGAAACUAGGAGCACCAUUUCGCUGCCAGUGAAGAAAUGAACAAAGAAAAUCUGGGCCAGGCAGGCAUCAAAAGAAAUAGUCUUGCGCUCAACCAGAAAGUCUGUAAUCAUUUUUAGGGUA [A134U], which self-cleavage is on record?
Its self-cleavage is 1.26.

With GUUAACGGUCAUAGGCCAUGGAAACUAGGAGCACCAUUUCGCUGCCAGUGAAGAAAUGAACAAAGAAAAUCUGGGCCAGGCAGGCAUCAAAAGAAAUAGUCUUGCGCUCAACCAGAAAGUCUGUAAUCAUUUUGAGGGUA [A134G] as the variant, how does the self-cleavage read?
The self-cleavage was 1.15.

With GUUAACGGUCAUAGGCCAUGGAAACUAGGAGCACCAUUUCGCUGCCAGUGAAGAAAUGAACAAAGAAAAUCUGGGCCAGGCAGGCAUCAAAAGAAAUAGUCUUGCGCUCAACCAGAAAGUCUGUAAUCAUUUUACGGGUA [A135C] as the variant, how does the self-cleavage read?
Its self-cleavage is 0.69.

For GUUAACGGUCAUAGGCCAUGGAAACUAGGAGCACCAUUUCGCUGCCAGUGAAGAAAUGAACAAAGAAAAUCUGGGCCAGGCAGGCAUCAAAAGAAAUAGUCUUGCGCUCAACCAGAAAGUCUGUAAUCAUUUUAGGGGUA [A135G], which self-cleavage is on record?
The self-cleavage was 1.14.

For GUUAACGGUCAUAGGCCAUGGAAACUAGGAGCACCAUUUCGCUGCCAGUGAAGAAAUGAACAAAGAAAAUCUGGGCCAGGCAGGCAUCAAAAGAAAUAGUCUUGCGCUCAACCAGAAAGUCUGUAAUCAUUUUAUGGGUA [A135U], which self-cleavage is on record?
Its self-cleavage is 1.47.

Which self-cleavage does the source give for GUUAACGGUCAUAGGCCAUGGAAACUAGGAGCACCAUUUCGCUGCCAGUGAAGAAAUGAACAAAGAAAAUCUGGGCCAGGCAGGCAUCAAAAGAAAUAGUCUUGCGCUCAACCAGAAAGUCUGUAAUCAUUUUAGGGGUG [A135G A140G] here?
The self-cleavage was 0.95.

For GUUAACGGUCAUAGGCCAUGGAAACUAGGAGCACCAUUUCGCUGCCAGUGAAGAAAUGAACAAAGAAAAUCUGGGCCAGGCAGGCAUCAAAAGAAAUAGUCUUGCGCUCAACCAGAAAGUCUGUAAUCAUUUUAAGGGCG [U139C A140G], which self-cleavage is on record?
Its self-cleavage is 1.57.

With GUUAACGGUCAUAGGCCAUGGAAACUAGGAGCACCAUUUCGCUGCCAGUGAAGAAAUGAACAAAGAAAAUCUGGGCCAGGCAGGCAUCAAAAGAAAUAGUCUUGCGCUCAACCAGAAAGUCUGUAAUCAUUUUAAGGCUA [G138C] as the variant, how does the self-cleavage read?
The self-cleavage was 1.73.

Which self-cleavage does the source give for GUUAACGGUCAUAGGCCAUGGAAACUAGGAGCACCAUUUCGCUGCCAGUGAAGAAAUGAACAAAGAAAAUCUGGGCCAGGCAGGCAUCAAAAGAAAUAGUCUUGCGCUCAACCAGAAAGUCUGUAAUCAUUUUAAGGUUA [G138U] here?
Its self-cleavage is 1.69.

Which self-cleavage does the source give for GUUAACGGUCAUAGGCCAUGGAAACUAGGAGCACCAUUUCGCUGCCAGUGAAGAAAUGAACAAAGAAAAUCUGGGCCAGGCAGGCAUCAAAAGAAAUAGUCUUGCGCUCAACCAGAAAGUCUGUAAUCAUUUUAAGGAUA [G138A] here?
Its self-cleavage is 0.93.

For GUUAACGGUCAUAGGCCAUGGAAACUAGGAGCACCAUUUCGCUGCCAGUGAAGAAAUGAACAAAGAAAAUCUGGGCCAGGCAGGCAUCAAAAGAAAUAGUCUUGCGCUCAACCAGAAAGUCUGUAAUCAUUUCGAGGGUA [U133C A134G], which self-cleavage is on record?
The self-cleavage was 0.26.

With GUUAACGGUCAUAGGCCAUGGAAACUAGGAGCACCAUUUCGCUGCCAGUGAAGAAAUGAACAAAGAAAAUCUGGGCCAGGCAGGCAUCAAAAGAAAUAGUCUUGCGCUCAACCAGAAAGUCUGUAAUCAUUCUAAGGGUU [U132C A140U] as the variant, how does the self-cleavage read?
The self-cleavage was 1.65.

Which self-cleavage does the source give for GUUAACGGUCAUAGGCCAUGGAAACUAGGAGCACCAUUUCGCUGCCAGUGAAGAAAUGAACAAAGAAAAUCUGGGCCAGGCAGGCAUCAAAAGAAAUAGUCUUGCGCUCAACCAGAAAGUCUGUAAUCAUUUCAGGGGUA [U133C A135G] here?
Its self-cleavage is 0.03.

With GUUAACGGUCAUAGGCCAUGGAAACUAGGAGCACCAUUUCGCUGCCAGUGAAGAAAUGAACAAAGAAAAUCUGGGCCAGGCAGGCAUCAAAAGAAAUAGUCUUGCGCUCAACCAGAAAGUCUGUAAUCAUUUUUUGGGUA [A134U A135U] as the variant, how does the self-cleavage read?
Its self-cleavage is 1.42.

For GUUAACGGUCAUAGGCCAUGGAAACUAGGAGCACCAUUUCGCUGCCAGUGAAGAAAUGAACAAAGAAAAUCUGGGCCAGGCAGGCAUCAAAAGAAAUAGUCUUGCGCUCAACCAGAAAGUCUGUAAUCAUUCCAAGGGUA [U132C U133C], which self-cleavage is on record?
The self-cleavage was 1.1.

Which self-cleavage does the source give for GUUAACGGUCAUAGGCCAUGGAAACUAGGAGCACCAUUUCGCUGCCAGUGAAGAAAUGAACAAAGAAAAUCUGGGCCAGGCAGGCAUCAAAAGAAAUAGUCUUGCGCUCAACCAGAAAGUCUGUAAUCAUUUUAGGAGUA [A135G G137A] here?
Its self-cleavage is 0.09.

For GUUAACGGUCAUAGGCCAUGGAAACUAGGAGCACCAUUUCGCUGCCAGUGAAGAAAUGAACAAAGAAAAUCUGGGCCAGGCAGGCAUCAAAAGAAAUAGUCUUGCGCUCAACCAGAAAGUCUGUAAUCAUUUUAAGGGGU [U139G A140U], which self-cleavage is on record?
Its self-cleavage is 1.51.

Which self-cleavage does the source give for GUUAACGGUCAUAGGCCAUGGAAACUAGGAGCACCAUUUCGCUGCCAGUGAAGAAAUGAACAAAGAAAAUCUGGGCCAGGCAGGCAUCAAAAGAAAUAGUCUUGCGCUCAACCAGAAAGUCUGUAAUCAUUGUAAGGGUA [U132G] here?
The self-cleavage was 0.89.

With GUUAACGGUCAUAGGCCAUGGAAACUAGGAGCACCAUUUCGCUGCCAGUGAAGAAAUGAACAAAGAAAAUCUGGGCCAGGCAGGCAUCAAAAGAAAUAGUCUUGCGCUCAACCAGAAAGUCUGUAAUCAUUUUAAGUGUA [G137U] as the variant, how does the self-cleavage read?
Its self-cleavage is 2.05.

Which self-cleavage does the source give for GUUAACGGUCAUAGGCCAUGGAAACUAGGAGCACCAUUUCGCUGCCAGUGAAGAAAUGAACAAAGAAAAUCUGGGCCAGGCAGGCAUCAAAAGAAAUAGUCUUGCGCUCAACCAGAAAGUCUGUAAUCAUUUUAAGCGUA [G137C] here?
Its self-cleavage is 1.82.

Which self-cleavage does the source give for GUUAACGGUCAUAGGCCAUGGAAACUAGGAGCACCAUUUCGCUGCCAGUGAAGAAAUGAACAAAGAAAAUCUGGGCCAGGCAGGCAUCAAAAGAAAUAGUCUUGCGCUCAACCAGAAAGUCUGUAAUCAUUUUAAGAGUA [G137A] here?
Its self-cleavage is 1.12.
